Measurements as given in PMC3325965, “Structural Basis of the Chromodomain of Cbx3 Bound to Methylated Peptides from Histone H1 and G9a” (PLoS ONE, 2012).

Legend:
[1] = molecular target: Histone H3K9me3 peptide (Homo sapiens) (UniProt P68431); details: cited from earlier work
[2] = molecular target: human Cbx3 chromodomain (residues 29–86) (human) (UniProt Q13185); assay: ITC; peptide solution (1–2 mM) injected into the cell with Cbx3 chromodomain (40–100 mM [sic]) in 20 mM Tris–HCl, pH 7.5, 150 mM NaCl; one-site binding model
Chain of human Cbx3 chromodomain (residues 29–86) (human) (Q13185 29-86): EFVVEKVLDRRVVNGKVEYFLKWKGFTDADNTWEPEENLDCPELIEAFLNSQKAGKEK

Chain of Cbx3 chromodomain (Q13185 30-88): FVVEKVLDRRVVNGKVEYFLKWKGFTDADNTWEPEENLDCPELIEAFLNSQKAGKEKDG

Substance	Kd [2]	Kd [1]
Cbx3 chromodomain (from UniProt Q13185)	–	15 µM
G9a(179–190) peptide, K185 monomethylated	28 µM	–

Further lines, with some results ahead:

Kd [2]	Substance	Kd [1]
14 µM	G9a(179–190) peptide, K185 trimethylated	–
52 µM	histone H1.4(18–29) peptide, K26 dimethylated	–
9 µM	G9a(179–190) peptide, K185 dimethylated	–
21 µM	histone H1.4(18–29) peptide, K26 trimethylated	–
